Results reported in paper PMC11005391, “Tetramerization is essential for the enzymatic function of the Pseudomonas aeruginosa virulence factor UDP-glucose pyrophosphorylase” (mBio, 2024).

Key:
[1] = biological target: the molecule itself; assay: cell-based or functional assay
[2] = biological target: the molecule itself; assay: native gel or EMSA; blue native PAGE, uniform 12% polyacrylamide gel with 3.5% stacking gel, 13.5 ug of each protein loaded, Coomassie-stained bands
[3] = biological target: the molecule itself; assay: SEC; Superdex 200 10/300 GL, 50 mM Tris-HCl pH 8.0, 300 mM NaCl, 10 mM MgCl2; oligomeric state calculated from elution volumes of proteins of known size; addition of UTP, Glc-1-P or UDP-Glc did not affect the oligomerization of the WT
Q9I291 = assay: as above

B1: PaUGP N32A (enzyme)
chain: MIKKCLFPAAGYGTRFLPATKAMPKEMLPVVAKPLIQYAVEEALEAGLSEIGIVTGRGKRSLEDHFDISYELEHQIRNTDKEKYLVGIRRLIDECTFAYTRQVEMKGLGHAILTGRPLIGDEPFAVVLADDLCLNLEGDSVLKQMVKLYNQFRCSIVAIQEVPPEETNKYGVIAGEMIRDDIFRVNTMVEKPKPEEAPSNLAIIGRYILTPDIFDLIEQTEPGKGGEIQITDALMKQAQDGCVLAYKFKGKRFDCGSAEGYIEATNFCYENLYKTGKAH
notes: UDP-glucose pyrophosphorylase of Pseudomonas aeruginosa (galU), residues 1-279, point mutant of Strep-PaUGP; Same construct as m1; source: E. coli BL21(DE3), purified (Strep-Tactin Sepharose); not shown: Strep-tagII, N-terminal, kept
In vitro activity (% of WT), EnzChek pyrophosphate assay, forward reaction [1]: 56.2 % of WT
stoichiometry N [2]: 4
stoichiometry N [3]: 4.4
N of the monomer peak (minor peak) (Q9I291): 1.1

B2: PaUGP H74F (enzyme)
chain: MIKKCLFPAAGYGTRFLPATKAMPKEMLPVVNKPLIQYAVEEALEAGLSEIGIVTGRGKRSLEDHFDISYELEFQIRNTDKEKYLVGIRRLIDECTFAYTRQVEMKGLGHAILTGRPLIGDEPFAVVLADDLCLNLEGDSVLKQMVKLYNQFRCSIVAIQEVPPEETNKYGVIAGEMIRDDIFRVNTMVEKPKPEEAPSNLAIIGRYILTPDIFDLIEQTEPGKGGEIQITDALMKQAQDGCVLAYKFKGKRFDCGSAEGYIEATNFCYENLYKTGKAH
notes: as for B1
stoichiometry N [2]: 4
stoichiometry N [3]: 3.5
N of the monomer peak (minor peak) (Q9I291): 1.1

B3: PaUGP D67A + R101A double mutant (enzyme)
chain: MIKKCLFPAAGYGTRFLPATKAMPKEMLPVVNKPLIQYAVEEALEAGLSEIGIVTGRGKRSLEDHFAISYELEHQIRNTDKEKYLVGIRRLIDECTFAYTAQVEMKGLGHAILTGRPLIGDEPFAVVLADDLCLNLEGDSVLKQMVKLYNQFRCSIVAIQEVPPEETNKYGVIAGEMIRDDIFRVNTMVEKPKPEEAPSNLAIIGRYILTPDIFDLIEQTEPGKGGEIQITDALMKQAQDGCVLAYKFKGKRFDCGSAEGYIEATNFCYENLYKTGKAH
notes: UDP-glucose pyrophosphorylase of Pseudomonas aeruginosa (galU), residues 1-279, double mutant of Strep-PaUGP; Same construct as m1; source: E. coli BL21(DE3), purified (Strep-Tactin Sepharose); not shown: Strep-tagII, N-terminal, kept
In vitro activity (% of WT), EnzChek pyrophosphate assay, forward reaction [1]: 1.57 % of WT
stoichiometry N [3]: 2

B4: PaUGP D67A (enzyme)
chain: MIKKCLFPAAGYGTRFLPATKAMPKEMLPVVNKPLIQYAVEEALEAGLSEIGIVTGRGKRSLEDHFAISYELEHQIRNTDKEKYLVGIRRLIDECTFAYTRQVEMKGLGHAILTGRPLIGDEPFAVVLADDLCLNLEGDSVLKQMVKLYNQFRCSIVAIQEVPPEETNKYGVIAGEMIRDDIFRVNTMVEKPKPEEAPSNLAIIGRYILTPDIFDLIEQTEPGKGGEIQITDALMKQAQDGCVLAYKFKGKRFDCGSAEGYIEATNFCYENLYKTGKAH
notes: as for B1
In vitro activity (% of WT), EnzChek pyrophosphate assay, forward reaction [1]: 3.31 % of WT
N of a minor peak [3]: 5.5
stoichiometry N [3]: 2.3

B5: PaUGP E63D (enzyme)
chain: MIKKCLFPAAGYGTRFLPATKAMPKEMLPVVNKPLIQYAVEEALEAGLSEIGIVTGRGKRSLDDHFDISYELEHQIRNTDKEKYLVGIRRLIDECTFAYTRQVEMKGLGHAILTGRPLIGDEPFAVVLADDLCLNLEGDSVLKQMVKLYNQFRCSIVAIQEVPPEETNKYGVIAGEMIRDDIFRVNTMVEKPKPEEAPSNLAIIGRYILTPDIFDLIEQTEPGKGGEIQITDALMKQAQDGCVLAYKFKGKRFDCGSAEGYIEATNFCYENLYKTGKAH
notes: as for B1
In vitro activity (% of WT), EnzChek pyrophosphate assay, forward reaction [1]: 5.68 % of WT
stoichiometry N [2]: 4
stoichiometry N [3]: 3.9
N of the monomer peak (minor peak) (Q9I291): 1.3

B6: PaUGP K59A (enzyme)
chain: MIKKCLFPAAGYGTRFLPATKAMPKEMLPVVNKPLIQYAVEEALEAGLSEIGIVTGRGARSLEDHFDISYELEHQIRNTDKEKYLVGIRRLIDECTFAYTRQVEMKGLGHAILTGRPLIGDEPFAVVLADDLCLNLEGDSVLKQMVKLYNQFRCSIVAIQEVPPEETNKYGVIAGEMIRDDIFRVNTMVEKPKPEEAPSNLAIIGRYILTPDIFDLIEQTEPGKGGEIQITDALMKQAQDGCVLAYKFKGKRFDCGSAEGYIEATNFCYENLYKTGKAH
notes: as for B1
In vitro activity (% of WT), EnzChek pyrophosphate assay, forward reaction [1]: 2.31 % of WT
stoichiometry N [2]: 4
stoichiometry N [3]: 3.6

B7: PaUGP Q75A (enzyme)
chain: MIKKCLFPAAGYGTRFLPATKAMPKEMLPVVNKPLIQYAVEEALEAGLSEIGIVTGRGKRSLEDHFDISYELEHAIRNTDKEKYLVGIRRLIDECTFAYTRQVEMKGLGHAILTGRPLIGDEPFAVVLADDLCLNLEGDSVLKQMVKLYNQFRCSIVAIQEVPPEETNKYGVIAGEMIRDDIFRVNTMVEKPKPEEAPSNLAIIGRYILTPDIFDLIEQTEPGKGGEIQITDALMKQAQDGCVLAYKFKGKRFDCGSAEGYIEATNFCYENLYKTGKAH
notes: as for B1
stoichiometry N [2]: 4
stoichiometry N [3]: 4.2
N of the monomer peak (minor peak) (Q9I291): 1.2

B8: PaUGP Y70A (enzyme)
chain: MIKKCLFPAAGYGTRFLPATKAMPKEMLPVVNKPLIQYAVEEALEAGLSEIGIVTGRGKRSLEDHFDISAELEHQIRNTDKEKYLVGIRRLIDECTFAYTRQVEMKGLGHAILTGRPLIGDEPFAVVLADDLCLNLEGDSVLKQMVKLYNQFRCSIVAIQEVPPEETNKYGVIAGEMIRDDIFRVNTMVEKPKPEEAPSNLAIIGRYILTPDIFDLIEQTEPGKGGEIQITDALMKQAQDGCVLAYKFKGKRFDCGSAEGYIEATNFCYENLYKTGKAH
notes: as for B1
In vitro activity (% of WT), EnzChek pyrophosphate assay, forward reaction [1]: 4.08 % of WT
N of a minor peak [3]: 3.8
stoichiometry N [3]: 2.5
N of the monomer peak (minor peak) (Q9I291): 1.3

B9: PaUGP D67N (enzyme)
chain: MIKKCLFPAAGYGTRFLPATKAMPKEMLPVVNKPLIQYAVEEALEAGLSEIGIVTGRGKRSLEDHFNISYELEHQIRNTDKEKYLVGIRRLIDECTFAYTRQVEMKGLGHAILTGRPLIGDEPFAVVLADDLCLNLEGDSVLKQMVKLYNQFRCSIVAIQEVPPEETNKYGVIAGEMIRDDIFRVNTMVEKPKPEEAPSNLAIIGRYILTPDIFDLIEQTEPGKGGEIQITDALMKQAQDGCVLAYKFKGKRFDCGSAEGYIEATNFCYENLYKTGKAH
notes: as for B1
In vitro activity (% of WT), EnzChek pyrophosphate assay, forward reaction [1]: 2.54 % of WT
N of a minor peak [3]: 3.8
stoichiometry N [3]: 2.1

B10: PaUGP Q75E (enzyme)
chain: MIKKCLFPAAGYGTRFLPATKAMPKEMLPVVNKPLIQYAVEEALEAGLSEIGIVTGRGKRSLEDHFDISYELEHEIRNTDKEKYLVGIRRLIDECTFAYTRQVEMKGLGHAILTGRPLIGDEPFAVVLADDLCLNLEGDSVLKQMVKLYNQFRCSIVAIQEVPPEETNKYGVIAGEMIRDDIFRVNTMVEKPKPEEAPSNLAIIGRYILTPDIFDLIEQTEPGKGGEIQITDALMKQAQDGCVLAYKFKGKRFDCGSAEGYIEATNFCYENLYKTGKAH
notes: as for B1
stoichiometry N [3]: 3.5

B11: PaUGP K21A + R101A double mutant (enzyme)
chain: MIKKCLFPAAGYGTRFLPATAAMPKEMLPVVNKPLIQYAVEEALEAGLSEIGIVTGRGKRSLEDHFDISYELEHQIRNTDKEKYLVGIRRLIDECTFAYTAQVEMKGLGHAILTGRPLIGDEPFAVVLADDLCLNLEGDSVLKQMVKLYNQFRCSIVAIQEVPPEETNKYGVIAGEMIRDDIFRVNTMVEKPKPEEAPSNLAIIGRYILTPDIFDLIEQTEPGKGGEIQITDALMKQAQDGCVLAYKFKGKRFDCGSAEGYIEATNFCYENLYKTGKAH
In vitro activity (% of WT), EnzChek pyrophosphate assay, forward reaction [1]: 0.32 % of WT

B12: PaUGP N32D (enzyme)
chain: MIKKCLFPAAGYGTRFLPATKAMPKEMLPVVDKPLIQYAVEEALEAGLSEIGIVTGRGKRSLEDHFDISYELEHQIRNTDKEKYLVGIRRLIDECTFAYTRQVEMKGLGHAILTGRPLIGDEPFAVVLADDLCLNLEGDSVLKQMVKLYNQFRCSIVAIQEVPPEETNKYGVIAGEMIRDDIFRVNTMVEKPKPEEAPSNLAIIGRYILTPDIFDLIEQTEPGKGGEIQITDALMKQAQDGCVLAYKFKGKRFDCGSAEGYIEATNFCYENLYKTGKAH
notes: as for B1
In vitro activity (% of WT), EnzChek pyrophosphate assay, forward reaction [1]: 110 % of WT
stoichiometry N [3]: 4.7
N of the monomer peak (minor peak) (Q9I291): 1.4

B13: PaUGP K59R (enzyme)
chain: MIKKCLFPAAGYGTRFLPATKAMPKEMLPVVNKPLIQYAVEEALEAGLSEIGIVTGRGRRSLEDHFDISYELEHQIRNTDKEKYLVGIRRLIDECTFAYTRQVEMKGLGHAILTGRPLIGDEPFAVVLADDLCLNLEGDSVLKQMVKLYNQFRCSIVAIQEVPPEETNKYGVIAGEMIRDDIFRVNTMVEKPKPEEAPSNLAIIGRYILTPDIFDLIEQTEPGKGGEIQITDALMKQAQDGCVLAYKFKGKRFDCGSAEGYIEATNFCYENLYKTGKAH
notes: as for B1
In vitro activity (% of WT), EnzChek pyrophosphate assay, forward reaction [1]: 1.66 % of WT
stoichiometry N [3]: 4

B14: PaUGP N266A (enzyme)
chain: MIKKCLFPAAGYGTRFLPATKAMPKEMLPVVNKPLIQYAVEEALEAGLSEIGIVTGRGKRSLEDHFDISYELEHQIRNTDKEKYLVGIRRLIDECTFAYTRQVEMKGLGHAILTGRPLIGDEPFAVVLADDLCLNLEGDSVLKQMVKLYNQFRCSIVAIQEVPPEETNKYGVIAGEMIRDDIFRVNTMVEKPKPEEAPSNLAIIGRYILTPDIFDLIEQTEPGKGGEIQITDALMKQAQDGCVLAYKFKGKRFDCGSAEGYIEATAFCYENLYKTGKAH
notes: as for B1
In vitro activity (% of WT), EnzChek pyrophosphate assay, forward reaction [1]: 64.9 % of WT
stoichiometry N [3]: 4
N of the monomer peak (minor peak) (Q9I291): 1.2

B15: PaUGP E63A (enzyme)
chain: MIKKCLFPAAGYGTRFLPATKAMPKEMLPVVNKPLIQYAVEEALEAGLSEIGIVTGRGKRSLADHFDISYELEHQIRNTDKEKYLVGIRRLIDECTFAYTRQVEMKGLGHAILTGRPLIGDEPFAVVLADDLCLNLEGDSVLKQMVKLYNQFRCSIVAIQEVPPEETNKYGVIAGEMIRDDIFRVNTMVEKPKPEEAPSNLAIIGRYILTPDIFDLIEQTEPGKGGEIQITDALMKQAQDGCVLAYKFKGKRFDCGSAEGYIEATNFCYENLYKTGKAH
notes: as for B1
In vitro activity (% of WT), EnzChek pyrophosphate assay, forward reaction [1]: 7.6 % of WT
stoichiometry N [3]: 3.6
